Test results from patent US20150284450A1, “COMBINATION THERAPIES USING ANTI-PSEUDOMONAS PSL AND PCRV BINDING MOLECULES” (priority 2012, published 2015).

Key:
P. aeruginosa 6294 (O6) = assay: Acute pneumonia model in mice, strain 6294; format: in vivo, Pseudomonas aeruginosa
Experimental: (§1) Antibodies or PBS were administered 24 hours before infection in each model. P. aeruginosa acute pneumonia, keratitis, and thermal injury infection models were performed as described (DiGiandomenico, A., et al., Proc Natl Acad Sci USA 104, 4624-4629 (2007)), with modifications. In the acute pneumonia model, BALB/c mice (The Jackson Laboratory) were infected with P. aeruginosa strains suspended in a 0.05 ml inoculum. In the thermal injury model, CF-1 mice (Charles River) received a 10% total body surface area burn with a metal brand heated to 92° C. for 10 seconds. Animals were infected subcutaneously with P. aeruginosa strain 6077 at the indicated dose. For organ burden experiments, acute pneumonia was induced in mice followed by harvesting of lungs, spleens, and kidneys 24 hours post-infection for determination of CFU.

[1] = test system: P. aeruginosa 6077 (O11-cytotoxic); assay: Corneal infection (keratitis) model in mice, strain 6077; format: in vivo, Pseudomonas aeruginosa; conditions: C3H/HeN mice, IP dosing 16 hours prior to 6077 (1×10^6 CFU), FIG. 8H
Experimental: as §1
Cam-003 and WapR-004 efficacy was next evaluated in a P. aeruginosa corneal infection model which emphasizes the pathogens ability to attach and colonize damaged tissue. […] FIG. 8 (H): The activity of anti-Psl and anti-PcrV monoclonal antibodies V2L2 was tested in a P. aeruginosa mouse ocular keratitis model. C3H/HeN mice were injected intraperitoneally (IP) with PBS or a control IgG1 antibody (R347) at 45 mg/kg or WapR-004 (α-Psl) at 5 mg/kg or V2L2 (α-PcrV) at 5 mg/kg, 16 hours prior to infection with 6077 (O11-cytotoxic−1×10^6 CFU) Immediately before infection, mice were anesthetized followed by initiation of three 1 mm scratches on the cornea and superficial stroma of one eye of each mouse using a 27-gauge needle under a dissection microscope, followed by topical application of P. aeruginosa 6077 strain in a 5 μl inoculum. Eyes were photographed at 48 hours post infection followed by corneal grading by visualization of eyes under a dissection microscope. Grading of corneal infection was performed as previously described by Preston et al. (Preston, M J., 1995, Infect. Immun. 63:3497). Briefly, infected eyes were graded 48 h after infection with strain 6077 by an investigator who was unaware of the animal treatments. The following grading scheme was used: grade 0, eye macroscopically identical to an uninfected eye; grade 1, faint opacity partially covering the pupil; grade 2, dense opacity covering the pupil; grade 3, dense opacity covering the entire pupil; grade 4, perforation of the cornea (shrinkage of the eyeball).

[2] = test system: P. aeruginosa 6206 (O11-ExoU+); assay: Acute pneumonia model in mice, strain 6206; format: in vivo, Pseudomonas aeruginosa; conditions: 6206; W4-RAD 0.2 mg/kg; monitored 120 hours; FIG. 21A
Experimental: as §1

[3] = test system: P. aeruginosa serogroup 05 strain (PAO1.lux); assay: Opsonophagocytic killing (OPK) assay with luminescent PAO1.lux, HL-60 cells and baby rabbit serum; format: cell-based, Pseudomonas aeruginosa; conditions: FIG. 10C, 11N-Q
Experimental: This example describes the evaluation of prioritized human IgG1 antibodies to promote OPK of P. aeruginosa. […] OPK assays were performed as described in (DiGiandomenico, A., et al., Infect Immun 72, 7012-7021 (2004)), with modifications. Briefly, assays were performed in 96-well plates using 0.025 ml of each OPK component; P. aeruginosa strains; diluted baby rabbit serum; differentiated HL-60 cells; and monoclonal antibody. In some OPK assays, luminescent P. aeruginosa strains, which were constructed as described (Choi, K. H., et al., Nat Methods 2, 443-448 (2005))., were used. Luminescent OPK assays were performed as described above but with determination of relative luciferase units (RLUs) using a Perkin Elmer ENVISION Multilabel plate reader (Perkin Elmer).

[4] = test system: P. aeruginosa 6077 (exoU+); assay: Rabbit red blood cell lysis inhibition assay with strain 6077; format: cell-based, Pseudomonas aeruginosa; conditions: strain 6077; FIG. 12D-E
Experimental: Percent inhibition of cytotoxicity analysis was analysed for the parental V2L2 mAb, mAb166 (positive control) and R347 (negative control), where the antibodies were administered to cultured broncho-epithelial cell line A549 combined with log-phase P. aeruginosa strain 6077 (exoU+) at a MOI of approximately 10. A549 lysis was assayed by measuring released lactate dehydrogenase (LDH) activity and lysis in the presence of mAbs was compared to wells without mAb to determine percent inhibition. The V2L2 mAb, mAb166 (positive control) and R347 (negative control) were evaluated for their ability to prevent lysis of RBCs, where the antibodies were mixed with log-phase P. aeruginosa 6077 (exoU^+) and washed rabbit red blood cells (RBCs) and incubated for 2 hours at 37°. Intact RBCs were pelleted and the extent of lysis determined by measuring the OD405 of the cell-free supernatant. Lysis in the presence of anti-PcrV mAbs was compared to wells without mAb to determine percent inhibition.

B1: WapR-004RAD: identical to WapR-004 except for substitution G98A of the VH; VH SEQ ID NO: 74, VL SEQ ID NO: 12 (antibody, V domains shown)
VH: EVQLLESGPGLVKPSETLSLTCNVAGGSISPYYWTWIRQPPGKGLELIGYIHSSGYTDYNPSLKSRVTISGDTSKKQFSLHVSSVTAADTAVYFCARADWDLLHALDIWGQGTLVTVSS
VL: EIVLTQSPSSLSTSVGDRVTITCRASQSIRSHLNWYQQKPGKAPKLLIYGASNLQSGVPSRFSGSGSGTDFTLTISSLQPEDFATYYCQQSYSFPLTFGGGTKLEIK
modifications: WapR-004RAD VH; WapR-004 & WarR-004RAD VL
organ burden in lung, spleen and kidney (P. aeruginosa 6294 (O6); 2.5×10^7 CFU 6294, Bs2-/Bs3-V2L2 0.7 mg/kg, V2L2 or W4-RAD 0.5 mg/kg, FIG. 23A): no effect on decreasing organ burden
survival effect, in words (P. aeruginosa 6294 (O6); 6294, bispecifics 0.28 mg/kg, V2L2 or W4-RAD 0.2 mg/kg, FIG. 24): did not affect survival
bacterial CFU in total eye homogenates compared to R347 control [1]: reduced bacterial colony forming units (CFU) in total eye homogenates
corneal pathology compared to R347 control ([1]; graded 48 h after infection): significantly less pathology
animals survived [2]: Approximately 90%

B2: Psl0588: lead optimized anti-Psl clone; VH SEQ ID NO:292, VL SEQ ID NO:293 (antibody, V domains shown)
VH: QVQLQESGPGLVKPSETLSLTCTVSGGSISPYYWTWIRQPPGKGLELIGYIHSSGYTDYNPSLKSRVTISGDTSKKQFSLKLSSVTAADTAVYYCARADDPFPGYLDIWGQGTMVTVSS
VL: DIQLTQSPSSLSASVGDRVTITCRASQSIRSHLNWYQQKPGKAPKLLIYGASNLQSGVPSRFSGSGSGTDFTLTISSLQPEDFATYYCQQSDTFPLKFGGGTKVEIK
modifications: Psl0588-Germline VH
OPK activity of lead optimized anti-Psl clones (basis of selection) [3]: enhanced OPK activity

B3: Psl0337: lead optimized anti-Psl clone; VH SEQ ID NO:295, VL SEQ ID NO:296 (antibody, V domains shown)
VH: QVQLQESGPGLVKPSETLSLTCTVSGGSISPYYWTWIRQPPGKGLELIGYIHSSGYTDYNPSLKSRVTISGDTSKKQFSLKLSSVTAADTAVYYCARADWDHKHALDIWGQGTMVTVSS
VL: DIQLTQSPSSLSASVGDRVTITCRASQSIRSHLNWYQQKPGKAPKLLIYGASNLQSGVPSRFSGSGSGTDFTLTISSLQPEDFATYYCQDSSSWPLTFGGGTKVEIK
modifications: Psl0337-Germline VH; Psl0337-Germline VL
OPK activity of lead optimized anti-Psl clones (basis of selection) [3]: enhanced OPK activity

B4: Psl0225: lead optimized anti-Psl clone; VH SEQ ID NO:290, VL SEQ ID NO:291 (antibody, V domains shown)
VH: QVQLQESGPGLVKPSETLSLTCTVSGGSISPYYWTWIRQPPGKGLELIGYIHSSGYTDYNPSLKSRVTISGDTSKKQFSLKLSSVTAADTAVYYCARAMDIEPHALDIWGQGTMVTVSS
VL: DIQLTQSPSSLSASVGDRVTITCRASQSIRSHLNWYQQKPGKAPKLLIYGASNLQSGVPSRFSGSGSGTDFTLTISSLQPEDFATYYCQQSDDGFPNFGGGTKVEIK
modifications: Psl0225-Germline VH; Psl0225-Germline VL
OPK activity of lead optimized anti-Psl clones (basis of selection) [3]: enhanced OPK activity

B5: V2L2-GL: V2L2-germlined mAb (antibody, V domains shown)
VH: EVQLLESGGGLVQPGGSLRLSCAASGFTFSSYAMNWVRQAPGKGLEWVSAITISGITAYYTDSVKGRFTISRDNSKNTLYLQMNSLRAEDTAVYYCAKEEFLPGTHYYYGMDVWGQGTTVTVSS
VL: AIQMTQSPSSLSASVGDRVTITCRASQGIRNDLGWYQQKPGKAPKLVIYSASTLQSGVPSRFSGSGSGTDFTLSISSLQPDDFATYYCLQDYNYPWTFGQGTKVEIK
modifications: V2L2-GL VH; V2L2-MD and V2L2-GL VL
notes: V2L2-germlined mAb
prevention of RBC lysis [4]: demonstrated prevention of RBC lysis
